Measurements published in the domain aggregation screens of Martell et al. (2025).

Experiment: soluble fraction after stress (log2 fold change); higher = more stays soluble; pooled small domains, quantitative proteomics
Conditions: stress: pH 4
Outline: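 Custom libraries of small protein domains were pooled and measured with high-throughput quantitative proteomics after pH 4 stress. The read-out is the fold change in the amount of each domain that stays soluble after the acid stress, taken as a measure of aggregation propensity. Fold changes are on a log2 scale, and higher values mean more of the domain stayed soluble.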

Going from “HMGSNATIKYAIKGDESLVQVAQKFNVTVSELRSWNNISAFENAKTGQELVINVPASKYETYFALANT” to “HMSQDEVVADMKADLGPDADNIIRSNIQWADGLVRKGILTESEREELDVMGGTPEAQRILVKLRTMQG”, the “soluble fraction (log2)” value falls from -0.0194 to -0.539.

Going from “HMTKVMVPNVVGMSRGEAEEALRGVKLQVDLKREVSDDPEVKPEEVLRQTPDAQTSVPQGSVVTLYVADKP” to “HMGKSETALELIKRGHRLIADDAVEITRIGSTLSGTAPELIRNYLEVRGVGVIDVEKLFGVGAVQDSTQI”, the “soluble fraction (log2)” value rises from -0.407 to -0.0577.

First: HMESSSQLGFELARLVESGNDEEARALVQAKELSEADERKWLYHLGNLLHAAGRPLQASAIWREVGT
Second: HMTEEEEFEKGFEILVNLSHFNRFSVYKEDEYVIVRIADYDFNEYFKVKKSDVGRIAEFLNENIT
The “soluble fraction (log2)” value of the first is higher: -0.436 for the first, -1.86 for the second.

“HMRKMELTEAAEKLIEEPDVVSAYRNMQQIFQQWREIGPVPREQRDEVWSHFKDLMTQVNRRHQAHFEN” and “HMSVDIWTGAQTGNIEAVKQHLADGVDVNSKSDIGRTALDVAIAFKQPLITDLLRKHGGKTRDELKAAE” are within 0.2 log units of each other in “soluble fraction (log2)” value: -0.258 for the first, -0.397 for the second.

“HMKKIDVEVVRSQLIAWMADNGKSQAEVSKSMGISASALSMFIKGTYTGDNEQIGRKAAALMDLVHRQSA” and “HMAAIPEQVSEEVVSAVKASGIDPGKVTKEQWTSLLKGRRTALGSSSGKLFMLSKAPVGYTLKAVNA” are within 0.2 log units of each other in “soluble fraction (log2)” value: 0.189 for the first, -0.000834 for the second.

“HMDVLIQEIGKRLRIQRLAMGLTQEELAKRAGISLSTLKLMEQQGKGSLQRLAKVAVVLDLDGDLRGLF” and “HMPKLTKEEIQFIDNYLKNSGVEYIDTRAEVVDHVASEIESRLSANNTTNFYEEFKVYMVQHKETLLK” are within 0.2 log units of each other in “soluble fraction (log2)” value: -1.01 for the first, -0.96 for the second.

Compared with “HMVKDIEFSLPLEQDYYKVLISVKDSQGKRQVYEELHRAGDTVYAAVRYYGSGELEIHLNGKFYKTIK”, “HMALSSQQIKDMQSWYGTKADGIWGSKSTTAAGGRDAGAAYSLYSSNKGRYSSYTDYMSYGGG” is higher in “soluble fraction (log2)” value: -1.6 for the first, -0.000306 for the second.

“HMDVLSQYGSRGEEVGKIQTRLKSWGYFSGEVTGYYGSQTTEAVKRFQQKHGLSATGVADRKTLELIGIS” and “HMQSHIVPDVKSQHIAQAKALLESKQMKAVVIDSNFVKGLPAGIVLDQTPIGGARVKENRTIYLTINTL” are within 0.2 log units of each other in “soluble fraction (log2)” value: 0.22 for the first, 0.0867 for the second.

Going from “HMIPDPPALGSNLHRERRRQQLSLDALAAASGVSKAMLSQIEADKVNPTIATMWKIAHALNIDFETLLRGE” to “HMGEWHQMLRSWGETELKNGRQNILDEAVPAFERAMIETALAHTSGRKKDAALLLGWGRNTLTRKLQEHSI”, the “soluble fraction (log2)” value falls from 0.172 to -0.349.

Compared with “HMPTEAIVLQQIQIRQSPSGNSKSLQQILPGAKIKITSESSVKGWKQVSLDGGQKGWIPTAAIGL”, “HMRPHDDHLREQLLGIATETIARTGVEGLSLRTLATDAGTSTSAVYQLFGSRAALLDAVYLRVLE” is lower in “soluble fraction (log2)” value: 0.302 for the first, -0.733 for the second.

Compared with “HMTIYPFNPNYLKDYQAYRVGLSLKEIDALLDFRSSGQWINSAEDFQRITGVSDSVLEQLIPYFKFS”, “HMVNHEERKRLIAEATWRTISHVGIEQASVRTIAKEAGLSLGALRYYFTTQEELLRFSMQLVQERV” is higher in “soluble fraction (log2)” value: -1.73 for the first, 0.0598 for the second.

“HMHYALTVDFPAALEARIDPAHRAALRGVLAHDPRPSYQSDPERLYGVAFAGKNVKFTVEDGVLTVRKIEE” and “HMAKNDSGLNNHTFNTIRDALQKALTDGPQEAKKLTENLPFPADKIITVIRYLADHDEHFSLEDGIISLT” are within 0.2 log units of each other in “soluble fraction (log2)” value: -0.267 for the first, -0.0785 for the second.

Going from “HMRFGNHHVYRTLMVLSDQKRKGRKQIADAVGIGEGSMRTIIEYLRGLDMIDIRQTGVKITRHGNAFL” to “HMTDFESYTVRVTATNLNIRKGAGTNFHSAGYIKPGVYTIVEEADGKGATRWGKLKSGMGWISLDYAKK”, the “soluble fraction (log2)” value rises from 0.138 to 0.428.

Compared with “HMYMTTADADMWKYVNTGRYNNDIQLMEEYKNRSMDSFEVITPEQQRKYNKAAMNLNSYYAWADPSYKPNP”, “HMTTTYEINDEMLKPLILEIFNKSKQRFGSTKIAPVLKREGYTASIAKVKTLMNELGIKPVNA” is higher in “soluble fraction (log2)” value: -0.888 for the first, 0.206 for the second.

“HMKEQLLLGFKVRSLRGIDLGFVKFIEGSAFQSFLKTDLTIIPNVPNYVKKIDNVKKIILVDWESD” and “HMIINFDAIKLTTELNKYKRHKAIPNTFFDGTYTILDVRELYNDLTPKAQKIADELIEHYNVDVK” are within 0.2 log units of each other in “soluble fraction (log2)” value: -1.54 for the first, -1.69 for the second.

Compared with “HMEVKSGFVHLTGAVKSPGVYPISIGMRLFEVIALAGGFTAKADRESVNLARTVTDGEQIIVSGSG”, “HMSTVIENVFKNFEVYEIKKGDTFYNIEKRFGVNRQELLVLNPELKEGLKLGMVLKIKEIIP” is higher in “soluble fraction (log2)” value: -0.778 for the first, 0.192 for the second.

First: HMSIHPRDKADLGTALSKWKKGALDDKQLELEVARVFMRTYGKKLEGQALNKAVAAWVAALTQSKK
Second: HMEDPVAQEARAAFEVGRLLAAATGPVTLAAIRRAIDLPEERLEEILRRLEESGAVRRARDGWLPG
The “soluble fraction (log2)” value of the first is higher: ≥ 0.43 for the first, -0.269 for the second.

“HMSRLLTTRQREVFEVATREGFWDVPRRINLSELAKVLGVAKSTLSSQLQRIESAVFHAFTDEIRRQS” and “HMPLQKNRPKIKPQKVVFLFSVEWMWSPAHNRIDSYFINIKPSRYYLWNSFFDRHSFSDYWDFIGYTEN” are within 0.2 log units of each other in “soluble fraction (log2)” value: 0.313 for the first, 0.22 for the second.

“HMQLYSLEVLSKKKVDLIENNKNLINLYFNKENGEYSYRLIFKNRKELYQVKDTLDNSSDVVSIKLDL” and “HMDKSLDFASIKSVEIATGRKFGWHALKKWSKSNSSEIKTIPDPNFGEVKTYHKDAWLAVYNINLSPILD” are within 0.2 log units of each other in “soluble fraction (log2)” value: -0.181 for the first, -0.0629 for the second.

Compared with “HMAAPPPLSDYRNMQEAEHIRNILLQHHGNVRRAAAALELSRPYLYQKMKQLGINIAELRELSLSHSS”, “HMGTPLYLLLAAEVRDRIATEQLAPHTAVPSERELAELHGVSRMTARQALALLESEGLVYRNPPRGTFVAE” is lower in “soluble fraction (log2)” value: 0.161 for the first, -0.922 for the second.

First: HMGVVEEVAADFEGRAVVGKVDVDEQTELARRFGIMSIPTLVVMKGGKVVEQAVGARGKADIAAMLERH
Second: HMRHSLAAALTELRRLAALDLGDFFRFEYVSHTDSLGGKQQAYTEGIRVSFGVYLGVNKKDRLNVDPVV
The “soluble fraction (log2)” value of the first is higher: -0.673 for the first, -2.38 for the second.

“HMGEGIRIDSTAVVQVGEKMYAYLGGDGFSKEFWTNLPASGELAVTLKFEPIPMDAESLDFYEMPA” and “HMKTLLSMNIKNLRKKKNMTLEELAEKVGTSKQTIQRYESGKISNIPSDKIELLAKYLDTTPAKLMGW” are within 0.2 log units of each other in “soluble fraction (log2)” value: 0.154 for the first, 0.187 for the second.

First: HMLHSEDATVVRQAIPLLERHVDAATVAVARRNLAQLEQFGRYPRRNQALGRISNPAENAYLRAER
Second: HMKAGRNTLARQMAILEVLQKDGRALVDDLAARFETTPQTIRKDLSALAEVNQISRFHGGAALVG
The “soluble fraction (log2)” value of the first is higher: -0.0503 for the first, -0.279 for the second.

First: HMGGVEWLTHPIGPRDSLQVLARAGLEARPTSDGDYEIYGQERWPQRDQARLMGWLRRFGQWVWQALYDK
Second: HMEISLAETLRSSLHMILGWYQNTGDKKLLELIRLHLQAYVNTGNSLNPEMEEIRAALETLGEGKEAFRP
The “soluble fraction (log2)” value of the first is higher: -0.386 for the first, -1.02 for the second.

Going from “HMGKEDISQINKLYQNQILDYETYIDTLNSFNIDTKSKDFKNLLDLFIKKSISFETFNKGIINIHNKS” to “HMNTSITVPSLKGLSQEAATLKMERLGLHVEVSDTGFVRSLAFGTVLQQSIAPGEKVKPGRLVYITINSD”, the “soluble fraction (log2)” value rises from -1.01 to 0.0638.

First: HMSQLSQIVDAFGGLRPFARALNKPPSTVQYWIEKGGIPASVVSPIMKLSEEKGLGLSRDQVSAAVS
Second: HMLSDEDMMELAIIENLQRENLNPIEEARAYESLIDKGFTHTEIADKMGKSRPYISNSIRLLSL
The “soluble fraction (log2)” value of the first is higher: 0.0542 for the first, -1.38 for the second.

First: HMEKEKIKEALIGYFEAEPEEKFTVQELADKLKMNKAGQFNFVVQAVAQLEHDKVITLDDEGNFSLVRHE
Second: HMVPSSHNIAQKVKQIKINDLWLDVRERYIYLKNLYLSHPLEKDHPSFIVYVEAVNQIYNQYF
The “soluble fraction (log2)” value of the first is lower: -0.967 for the first, 0.0743 for the second.

Compared with “HMKGLKERLLYFIEYKGLPVQMFEKIVGLSNAAVSKMGDNTRRSTIDKISKSFPELDVNWLLTGQGEMLSY”, “HMADIWDLLRSEYKLTETDVRMLTDMLPDELMNDFRSEVLALRDRMNRYKVNNPKSYVVTSLKNFIIQHTP” is lower in “soluble fraction (log2)” value: 0.296 for the first, -0.787 for the second.

“HMKEIATKSELTYFIQRLLDLLEETNFFNPEERKKAMINHIEAIFRRNNLTLQELNMLHGIITSITR” and “HMVITISEADVSGTYTKSITQGDWKYIRTWTPFEDERLYDLAKDPMELRDLAPAAPSKLAELRELLSALVS” are within 0.2 log units of each other in “soluble fraction (log2)” value: -1.38 for the first, -1.56 for the second.

“HMSQLSDEQELRDIARGIIEGNPNEAEKYRAGRTGLLGFFVGKLMAETEGKANPRLASRILKELLE” and “HMELPVAVPHTELSPEALRGVVESFVLREGTDYGERDVPFEAKVAQVIRQLERGEARIMFDPVTQSVQIVT” are within 0.2 log units of each other in “soluble fraction (log2)” value: -0.441 for the first, -0.411 for the second.

First: HMSEVPAAVLVTGGSINLREAPSTDATIIDVAQVGEKMTVLAEKNSWYQVSRGGRNVWVASWVVDPLT
Second: HMDDGNHTEYIVLEKAKFYDEAGEYEEGRDLVLSFDKYQDNWKLVYTLGVFNKKLNNLEEARKYYKQALE
The “soluble fraction (log2)” value of the first is higher: -0.566 for the first, -0.846 for the second.

Compared with “HMLSKEERRSQLLDLGVRLLSTRSLDELSIDLLAEEAGISRGLLYHYFGNKHDFHEAVVRRAADDLI”, “HMSFSPYLVRVSITDLNIRKGPGTNYAKTGKFTGKGVFTIVEMQTGKGSDTGWGRLKSGAGWISLDYTEKI” is higher in “soluble fraction (log2)” value: -1.12 for the first, 0.0318 for the second.

Compared with “HMEYMKQRLYDIIELFKRSFSPSFSEEEKKKLENVLQDDFLRKAYEQLSDEVFIEEKFREFDGY”, “HMNSFGWESFVGEKGVTDTDLRPSGWIVIKDKRLFALTEGTFIEKGVSVEILSVEGNRIVVREIS” is higher in “soluble fraction (log2)” value: -2.28 for the first, -0.711 for the second.

First: HMDSTDSIIHYVRAHRSLEVKNLSFAEARFKKVVELEPNFARGWLGLGEVSILKNNFENASIYLDKALE
Second: HMSADISIGYNIPKGSVTVSAGGRTLQEGIDYDINYDLGTIKITNQAILNAGLPVQVNFENNAS
The “soluble fraction (log2)” value of the first is lower: -0.505 for the first, -0.212 for the second.

“HMGNEMQVPNVAGKTVDEAIEIFNNMGLKVAAENKYAQSDDVKEGDVVKTDPSSGRNVKKGSEITLYISQG” and “HMGKIINMSKVKQVLRLHTQGVSNRRIALDLGLYKGTVNSYIRKIKDHGYDIAEVLKLDDPVLESKLFA” are within 0.2 log units of each other in “soluble fraction (log2)” value: 0.291 for the first, 0.268 for the second.

Going from “HMRPEKLVLKALRGAHGPLSAEEVAGRIEADGGAGLDVARVEHVLGQLERSGTVAALGGGKYLALR” to “HMNILNFSENIIKLRHKKGITQEELADFVGVTKASVSKWETKQSLPDIMLLPRLAAYFDVTVDELLGYEP”, the “soluble fraction (log2)” value falls from 0.123 to -0.115.

Going from “HMKIEEIAYSTFISMLDKGEVSKVELKDNLIYIETKADDKTIYTTGRMEDPDLTNRLIEAGVDFTEIE” to “HMSSVGELEVGNIFEGTVNSVRGGKVLLALGNGQMVLAQMDGRVNITPGSSMFFQVKSNDGETVAIRPYTG”, the “soluble fraction (log2)” value rises from -0.73 to 0.156.

For “HMTKTEFLNLLEQRLFVLNDNERADLLSEYKQHIEMKIQSGLSEEEAIADFGDPEELIKELLEAY”, the “soluble fraction (log2)” value was -1.13.
